System: T1, C=CCc1cc(OC)c2c(c1)OCO2
T1 construct: full-length, 505 residues, 57 kD, untagged; microsomal fraction of Saccharomyces cerevisiae AH22, vector pGYR-SpeI co-expressing yeast NADPH-P450 reductase
Assay: GC-FID product assay, yeast microsomal fraction
Type: biochemical, Perilla frutescens
Conditions: 0.5 mM NADPH, 50 mM HEPES/NaOH pH 7.5, 30 °C, 15 min, myristicin 0.2 to 10 µM, co-expressed yeast NADPH-P450 reductase, product 6-allyl-4-methoxy-1,3-benzodioxol-5-ol
Description: GC-FID product assay, yeast microsomal fraction on Pf-49487 (CYP71D558) | We performed kinetic analyses of the Pf-49487 reaction using myristicin as substrate.

Substance: Pf-49487 (CYP71D558) (Perilla frutescens)
- Km: 9.1 µM
- kcat: 15 min⁻¹
